The record followed here is publication PMC8828063, “High-resolution mapping of metal ions reveals principles of surface layer assembly in Caulobacter crescentus cells” (Structure(London, England:1993), 2022).

The term stoichiometry N denotes a count of units in the complex or per binding partner.

This data set deals with the molecule itself. Briefly: crystal structure; RsaA 30 mg/mL with 5 mM CaCl2; 0.07 M KSCN, 24% (w/v) PEG 8000, 0.075 M TAPS/NaOH pH 8.5, 19°C; stacked S-layer sheets in three-dimensional crystals; long-wavelength anomalous diffraction, molecular replacement with PDB 5N8P.

B1: RsaA, S-layer protein of Caulobacter crescentus (wild type, full length) (natural protein, UniProt A0A0H3C8J1 1-1026, looked up)
chain: MAYTTAQLVTAYTNANLGKAPDAATTLTLDAYATQTQTGGLSDAAALTNTLKLVNSTTAVAIQTYQFFTGVAPSAAGLDFLVDSTTNTNDLNDAYYSKFAQENRFINFSINLATGAGAGATAFAAAYTGVSYAQTVATAYDKIIGNAVATAAGVDVAAAVAFLSRQANIDYLTAFVRANTPFTAAADIDLAVKAALIGTILNAATVSGIGGYATATAAMINDLSDGALSTDNAAGVNLFTAYPSSGVSGSTLSLTTGTDTLTGTANNDTFVAGEVAGAATLTVGDTLSGGAGTDVLNWVQAAAVTALPTGVTISGIETMNVTSGAAITLNTSSGVTGLTALNTNTSGAAQTVTAGAGQNLTATTAAQAANNVAVDGGANVTVASTGVTSGTTTVGANSAASGTVSVSVANSSTTTTGAIAVTGGTAVTVAQTAGNAVNTTLTQADVTVTGNSSTTAVTVTQTAAATAGATVAGRVNGAVTITDSAAASATTAGKIATVTLGSFGAATIDSSALTTVNLSGTGTSLGIGRGALTATPTANTLTLNVNGLTTTGAITDSEAAADDGFTTINIAGSTASSTIASLVAADATTLNISGDARVTITSHTAAALTGITVTNSVGATLGAELATGLVFTGGAGADSILLGATTKAIVMGAGDDTVTVSSATLGAGGSVNGGDGTDVLVANVNGSSFSADPAFGGFETLRVAGAAAQGSHNANGFTALQLGATAGATTFTNVAVNVGLTVLAAPTGTTTVTLANATGTSDVFNLTLSSSAALAAGTVALAGVETVNIAATDTNTTAHVDTLTLQATSAKSIVVTGNAGLNLTNTGNTAVTSFDASAVTGTGSAVTFVSANTTVGEVVTIRGGAGADSLTGSATANDTIIGGAGADTLVYTGGTDTFTGGTGADIFDINAIGTSTAFVTITDAAVGDKLDLVGISTNGAIADGAFGAAVTLGAAATLAQYLDAAAAGDGSGTSVAKWFQFGGDTYVVVDSSAGATFVSGADAVIKLTGLVTLTTSAFATEVLTLA
notes: RsaA, S-layer protein of Caulobacter crescentus CB15N (NA1000), 1,026 amino acid residues; RsaANTD is residues 1-250 and RsaACTD residues 251-1,026; Full-length protein went into crystallisation; also called SLP; wild-type RsaA; source: purified from C. crescentus CB15N (NA1000) cells by low pH exposure (HiTrap SP flow-through, HiTrap Q)
Consider B1, for which the “stoichiometry N” value stood at 6.
